Test results: FireProtDB (doi:10.1021/bi002792f)

B1: Lysozyme C, P61626 (parent)
chain: MKALIVLGLVLLSVTVQGKVFERCELARTLKRLGMDGYRGISLANWMCLAKWESGYNTRATNYNAGDRSTDYGIFQINSRYWCNDGKTPGAVNACHLSCSALLQDNIADAVACAKRVVRDPQGIRAWVAWRNRCQNRDVRQYVQGCGV

Variants of: B1
Conditions: Homo sapiens, pH 2.7, Thermal, DSC, Gly-HCl 0.05 M, reversible: yes, structure 1LZ1, whole UniProt chain shown

Variant	ddG of mutation (higher = less stable) (64.9 °C) [kcal/mol]	heat capacity change of unfolding (64.9 °C) [kcal/mol/K]	unfolding enthalpy (calorimetric) (64.9 °C) [kcal/mol]	Tm [°C]	change of melting temperature, mutant - wild type (higher = more stable) [°C]	heat capacity change of unfolding [kcal/mol/K]
L26T	3.73	1.39	107	52.5	-12.4	1.39
A27S		1.27	106	64.8	-0.1	1.27
A50S	0.33	1.65	111	63.9	-1	1.65
V117T		1.41	104	63.3	-1.6	1.41
A114S	1	1.29	103	61.6	-3.3	1.29
A110S		2.01	104	67.5	2.6	2.01
V111T	0.67	1.12	101	62.6	-2.3	1.12
V118T		1.53	107			
